Columns and labels:
[1] = molecular target: T1, EmrE (Escherichia coli, UniProt P23895); experiment: isothermal titration calorimetry; type: binding
T1 construct: dimer by TPP stoichiometry

[2] = system: C[n+]1ccc(-c2cc[n+](C)cc2)cc1; experiment: purified protein; conditions: labelled compound; DOPC liposomes without added DOPG; pH gradient (inside 7.5, outside 8); saturation incomplete, estimate

T1 sequence (P23895 whole entry): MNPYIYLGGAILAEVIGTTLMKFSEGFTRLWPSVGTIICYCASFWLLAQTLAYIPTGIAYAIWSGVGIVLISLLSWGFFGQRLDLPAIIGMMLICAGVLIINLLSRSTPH

Row | Molecule | Kd [1] [µM] | Km [2] [µM] | Vmax [2] [µmol/min]
1 | c1ccc([P+](c2ccccc2)(c2ccccc2)c2ccccc2)cc1 [TPP] | 0.036 |  | 
2 | EmrE (Escherichia coli K-12) |  | 1100 ± 500 | 2

Source: publication PMC2605743, “Lipid bilayer composition influences small multidrug transporters” (BMC Biochemistry, 2008)
